Measured values: US20190169241A1 (BOARD OF TRUSTEES OF THE UNIVERSITY OF ILLINOIS, published 2019)
Each block holds one binder with its values, some of them ahead of it. No end group written: not given here.

What was measured:
[1] = biological target: T1, vascular endothelial growth factor receptor 2 (VEGFR2), endogenous, from HUVEC lysates (human, UniProt P35968 20-1356); assay: pull-down of endogenous VEGFR2 from HUVEC lysate with the recombinant truncation on beads, western blot with anti-VEGFR2 antibody
T1 construct: Endogenous receptor from cell lysate, detected by western blot with anti-VEGFR2 antibody or by mass spectrometry; also called Flk-1
T1 sequence (P35968 20-1356 limits assumed): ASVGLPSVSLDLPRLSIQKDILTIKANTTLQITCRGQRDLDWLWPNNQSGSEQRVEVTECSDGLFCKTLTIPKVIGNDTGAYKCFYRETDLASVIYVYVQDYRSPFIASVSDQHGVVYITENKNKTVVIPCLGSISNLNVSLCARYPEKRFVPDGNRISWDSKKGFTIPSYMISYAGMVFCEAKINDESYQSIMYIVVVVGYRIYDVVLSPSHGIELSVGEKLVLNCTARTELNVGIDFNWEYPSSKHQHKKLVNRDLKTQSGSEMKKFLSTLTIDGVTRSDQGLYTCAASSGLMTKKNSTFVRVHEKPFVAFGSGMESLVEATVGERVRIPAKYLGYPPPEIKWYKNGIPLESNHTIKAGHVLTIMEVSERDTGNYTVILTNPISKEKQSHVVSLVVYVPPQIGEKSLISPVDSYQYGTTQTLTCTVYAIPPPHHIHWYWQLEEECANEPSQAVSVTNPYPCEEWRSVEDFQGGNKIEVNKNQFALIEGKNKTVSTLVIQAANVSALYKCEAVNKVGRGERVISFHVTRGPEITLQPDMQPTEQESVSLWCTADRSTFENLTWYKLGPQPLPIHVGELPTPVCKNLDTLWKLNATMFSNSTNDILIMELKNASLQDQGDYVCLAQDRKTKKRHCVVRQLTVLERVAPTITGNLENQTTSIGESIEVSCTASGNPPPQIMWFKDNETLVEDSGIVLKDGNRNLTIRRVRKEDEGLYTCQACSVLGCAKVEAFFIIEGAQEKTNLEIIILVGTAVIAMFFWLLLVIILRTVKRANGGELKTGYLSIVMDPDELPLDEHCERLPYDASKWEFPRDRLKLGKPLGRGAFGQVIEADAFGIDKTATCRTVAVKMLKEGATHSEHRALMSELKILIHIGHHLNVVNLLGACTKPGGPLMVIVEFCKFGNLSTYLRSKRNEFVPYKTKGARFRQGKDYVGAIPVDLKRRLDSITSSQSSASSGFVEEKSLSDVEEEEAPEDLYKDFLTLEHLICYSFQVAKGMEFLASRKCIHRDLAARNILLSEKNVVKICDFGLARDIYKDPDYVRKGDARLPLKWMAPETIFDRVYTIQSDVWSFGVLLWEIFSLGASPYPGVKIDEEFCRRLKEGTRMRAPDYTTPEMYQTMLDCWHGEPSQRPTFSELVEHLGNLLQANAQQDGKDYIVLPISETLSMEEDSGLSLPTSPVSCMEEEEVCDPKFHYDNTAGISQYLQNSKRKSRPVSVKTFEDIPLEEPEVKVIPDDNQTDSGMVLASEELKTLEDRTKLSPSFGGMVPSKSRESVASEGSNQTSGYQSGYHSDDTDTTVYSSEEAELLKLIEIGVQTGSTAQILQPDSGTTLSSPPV

[2] = biological target: T1, vascular endothelial growth factor …; assay: pull-down from HUVEC lysate with recombinant protein on beads, anti-VEGFR2 western blot
Text: The DUFs were identified from amino acid sequence similarity on the Pfam database. It has been previously shown that both domains of DUF3694 directly bind recombinant VEGFR2 in vitro (Yamada, et al. (2007) Biochemistry 46:10039-45). […] DUF2 was divided into 3 parts, DUF2A (residues 1111-1167), DUF2B (residues 1168-1216), and DUF2C (residues 1217-1281) and each part was expressed as a recombinant protein in bacteria. VEGFR2 was abundantly expressed in HUVECs; thus, cell lysate from HUVECs was incubated with these recombinant proteins on beads, and VEGFR2 binding was determined using the anti-VEGFR2 antibody.

[3] = biological target: PDGFRβ, endogenous, found in the pull-down by mass spectrometry (UniProt P09619 33-1106, limits assumed); assay: pull-down with peptide on streptavidin beads, mass spec analysis
Chain of PDGFRβ, endogenous, found in the pull-down by mass spectrometry (P09619 33-1106 limits assumed): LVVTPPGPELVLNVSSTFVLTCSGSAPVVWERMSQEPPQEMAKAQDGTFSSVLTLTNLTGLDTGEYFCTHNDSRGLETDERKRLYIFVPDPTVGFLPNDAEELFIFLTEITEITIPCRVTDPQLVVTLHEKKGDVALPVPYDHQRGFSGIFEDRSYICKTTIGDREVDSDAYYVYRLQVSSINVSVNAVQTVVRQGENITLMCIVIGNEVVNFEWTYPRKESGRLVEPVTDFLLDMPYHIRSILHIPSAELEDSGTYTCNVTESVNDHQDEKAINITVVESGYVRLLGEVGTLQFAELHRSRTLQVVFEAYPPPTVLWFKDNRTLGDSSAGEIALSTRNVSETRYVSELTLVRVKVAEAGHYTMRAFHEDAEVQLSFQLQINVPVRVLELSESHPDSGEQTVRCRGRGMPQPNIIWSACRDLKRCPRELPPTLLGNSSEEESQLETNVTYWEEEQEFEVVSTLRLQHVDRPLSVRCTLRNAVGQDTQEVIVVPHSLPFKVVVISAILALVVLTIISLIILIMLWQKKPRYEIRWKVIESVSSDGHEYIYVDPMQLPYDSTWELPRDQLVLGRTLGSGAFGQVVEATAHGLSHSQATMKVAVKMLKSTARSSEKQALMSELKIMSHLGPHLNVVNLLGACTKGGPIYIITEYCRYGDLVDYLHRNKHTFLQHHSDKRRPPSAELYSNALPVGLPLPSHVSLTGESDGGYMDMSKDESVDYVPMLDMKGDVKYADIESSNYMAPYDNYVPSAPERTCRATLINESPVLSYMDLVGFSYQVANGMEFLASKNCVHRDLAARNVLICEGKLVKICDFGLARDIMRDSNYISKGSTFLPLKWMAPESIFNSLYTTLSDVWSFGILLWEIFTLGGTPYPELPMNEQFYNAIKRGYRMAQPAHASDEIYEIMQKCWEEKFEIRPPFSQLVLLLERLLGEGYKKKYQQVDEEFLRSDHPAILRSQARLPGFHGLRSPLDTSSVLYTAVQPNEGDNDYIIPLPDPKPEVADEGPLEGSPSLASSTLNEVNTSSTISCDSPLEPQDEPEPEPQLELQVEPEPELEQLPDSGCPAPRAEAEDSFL

[4] = biological target: PDGFRα, endogenous, found in the pull-down by mass spectrometry (UniProt P16234 24-1089, limits assumed); assay: as above
Chain of PDGFRα, endogenous, found in the pull-down by mass spectrometry (P16234 24-1089 limits assumed): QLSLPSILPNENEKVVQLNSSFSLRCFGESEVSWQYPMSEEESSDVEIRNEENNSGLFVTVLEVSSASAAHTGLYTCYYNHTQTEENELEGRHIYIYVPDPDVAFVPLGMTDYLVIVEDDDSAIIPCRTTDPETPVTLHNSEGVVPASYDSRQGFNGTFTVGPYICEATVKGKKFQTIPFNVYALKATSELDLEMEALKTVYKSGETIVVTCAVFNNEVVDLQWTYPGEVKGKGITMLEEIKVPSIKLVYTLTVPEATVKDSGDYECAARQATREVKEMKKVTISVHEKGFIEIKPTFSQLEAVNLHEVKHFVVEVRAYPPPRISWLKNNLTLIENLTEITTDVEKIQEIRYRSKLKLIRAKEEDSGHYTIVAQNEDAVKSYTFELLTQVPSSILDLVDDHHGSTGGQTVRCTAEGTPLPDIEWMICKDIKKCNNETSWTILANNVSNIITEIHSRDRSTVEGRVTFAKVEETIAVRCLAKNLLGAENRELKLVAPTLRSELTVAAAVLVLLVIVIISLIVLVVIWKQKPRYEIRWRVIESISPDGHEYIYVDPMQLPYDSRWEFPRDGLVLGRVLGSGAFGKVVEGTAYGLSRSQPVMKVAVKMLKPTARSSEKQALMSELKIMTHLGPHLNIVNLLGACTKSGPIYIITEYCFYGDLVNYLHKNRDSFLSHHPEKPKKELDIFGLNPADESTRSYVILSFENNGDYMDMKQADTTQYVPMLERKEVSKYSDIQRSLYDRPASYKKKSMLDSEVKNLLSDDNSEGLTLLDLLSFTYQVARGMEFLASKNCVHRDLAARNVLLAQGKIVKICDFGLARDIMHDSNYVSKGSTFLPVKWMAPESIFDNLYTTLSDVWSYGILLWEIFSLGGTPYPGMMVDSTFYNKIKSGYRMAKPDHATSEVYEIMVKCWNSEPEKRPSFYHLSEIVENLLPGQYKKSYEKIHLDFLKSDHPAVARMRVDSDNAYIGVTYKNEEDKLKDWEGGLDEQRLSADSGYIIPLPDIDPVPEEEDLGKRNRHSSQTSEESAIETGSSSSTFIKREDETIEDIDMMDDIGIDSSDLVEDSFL

[5] = biological target: EGFR, endogenous, found in the pull-down by mass spectrometry (UniProt P00533 25-1210, limits assumed); assay: as above
[6] = biological target: T2, VEGFR2, recombinant cytosolic domain (Fisher Scientific) (UniProt P35968 789-1356, limits assumed); assay: SPR (BIACORE), peptide on avidin-coated chip, recombinant cytosolic domain as analyte
T2 construct: domain: cytosolic domain; Analyte in the BIACORE experiment
T2 sequence (P35968 789-1356 limits assumed): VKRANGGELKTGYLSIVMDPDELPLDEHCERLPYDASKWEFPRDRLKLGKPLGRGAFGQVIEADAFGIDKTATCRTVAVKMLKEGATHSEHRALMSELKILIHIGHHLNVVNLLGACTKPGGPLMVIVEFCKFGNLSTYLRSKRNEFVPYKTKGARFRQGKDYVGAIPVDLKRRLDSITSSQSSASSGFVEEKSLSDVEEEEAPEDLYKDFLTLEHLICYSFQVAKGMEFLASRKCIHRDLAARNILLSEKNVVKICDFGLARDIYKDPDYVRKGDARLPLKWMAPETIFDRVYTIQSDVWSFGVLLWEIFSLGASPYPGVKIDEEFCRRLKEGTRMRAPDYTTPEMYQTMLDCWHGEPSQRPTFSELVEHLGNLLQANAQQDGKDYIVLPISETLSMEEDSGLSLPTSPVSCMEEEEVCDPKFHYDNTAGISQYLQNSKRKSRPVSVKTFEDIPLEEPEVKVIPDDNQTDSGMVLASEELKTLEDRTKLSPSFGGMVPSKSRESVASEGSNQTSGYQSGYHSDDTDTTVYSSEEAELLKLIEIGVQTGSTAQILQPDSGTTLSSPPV

[7] = biological target: T1, vascular endothelial growth factor …; assay: pull-down from HUVEC lysates, peptide on streptavidin beads
[8] = biological target: Tie2 (UniProt Q02763 23-1124, limits assumed); assay: pull-down with peptide on streptavidin beads, mass spec analysis
[9] = biological target: T3, Par1 (UniProt P25116 22-425, limits assumed); assay: as above
T3 sequence (looked up): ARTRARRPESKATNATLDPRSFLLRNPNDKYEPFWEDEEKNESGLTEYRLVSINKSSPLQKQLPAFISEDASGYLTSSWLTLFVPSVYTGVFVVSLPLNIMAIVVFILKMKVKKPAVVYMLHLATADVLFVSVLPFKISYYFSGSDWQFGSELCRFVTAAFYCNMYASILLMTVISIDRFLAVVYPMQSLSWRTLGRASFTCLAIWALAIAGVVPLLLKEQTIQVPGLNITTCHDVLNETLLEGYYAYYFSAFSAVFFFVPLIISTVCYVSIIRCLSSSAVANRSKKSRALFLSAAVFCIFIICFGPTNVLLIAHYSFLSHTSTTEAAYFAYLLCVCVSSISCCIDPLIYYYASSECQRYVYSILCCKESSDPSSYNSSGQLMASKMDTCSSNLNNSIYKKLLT

B1: C7 (peptide, not shown: small tags and cut ends)
peptide: ADMQLVLRKRICVNVHGRQGF
notes: the sheet prints only 'C7'; also called DUF2C7; DUF C7 (1261-1281 aa)
- binding result [1]: no binding

B2: DUF2A (residues 1111-1167 of KIF13B), recombinant protein from bacteria (other, human, UniProt Q9NQT8 1111-1167, looked up)
chain: QKLVSKRDKTEDDADREAQLLEMRLTLTEERNAVMVPSAGSGIPGAPAEWTPVPGME
notes: range 1111-1167; not shown: His-tag and S-tag
- binding result [2]: no binding

Binder: RVRASELRSFSRMLAGDPGCSPG (peptide, UniProt Q9NQT8 1650-1672, looked up, also: biotin-tag (position not given here), range 1650-1672) [CT23 (residues 1650 to 1672 of KIF13B), synthetic negative control peptide with a biotin-tag]
- binding result [3]: no binding
- binding result [4]: no binding
- binding result [5]: no binding
- binding result [6]: no binding
- binding result [7]: no binding

B3: DUF2B (residues 1168-1216 of KIF13B), recombinant protein from bacteria (other, human, UniProt Q9NQT8 1168-1216, looked up)
chain: THIPVIFLDLNADDFSSQDNLDDPEAGGWDATLTGEEEEEFFELQIVKQ
notes: range 1168-1216; not shown: His-tag and S-tag
- binding result [2]: no binding

The next lines start with the values.

- binding result [1]: no binding
B4: C1 (peptide, UniProt Q9NQT8 1202-1240, looked up)
single chain: GEEEEEFFELQIVKQHDGEVKAEASWDSAVHGCPQLSRG
notes: recombinant truncated mutant expressed in bacteria with His-tag and S-tag; the sheet prints only 'C1'; also called DUF2C1; DUF C1 (1202-1240 aa)

- binding result [1]: no binding
B5: C4 (peptide, UniProt Q9NQT8 1226-1251, looked up)
single chain: SWDSAVHGCPQLSRGTPVDERLFLIV
notes: recombinant truncated mutant expressed in bacteria with His-tag and S-tag; the sheet prints only 'C4'; also called DUF2C4; DUF C4 (1226-1251 aa)

- binding result [8]: no binding
- binding result [9]: no binding
- Kd [6]: 5.5 nM
B6: Biotin-DUF2C5 peptide (synthetic, residues 1238-1260 of KIF13B with a biotin-tag) (peptide)
peptide: SRGTPVDERLFLIVRVTVQLSHP
modifications: also: biotin-tag (position not given here)
notes: Immobilised on streptavidin beads (pull-down, mass spectrometry) or on an avidin-coated BIACORE chip
